Data taken from patent publication US20080253962A1 (Bristol-Myers Squibb, published 2008).

T1: IRTA3, full length transmembrane form with N-terminal myc tag, expressed on transfected CHO cells (human, UniProt Q96P31 18-734)
T1 construct: Full length cDNA in CHO cells; also called human IRTA-3; not shown: myc tag at the N-terminus
T1 sequence: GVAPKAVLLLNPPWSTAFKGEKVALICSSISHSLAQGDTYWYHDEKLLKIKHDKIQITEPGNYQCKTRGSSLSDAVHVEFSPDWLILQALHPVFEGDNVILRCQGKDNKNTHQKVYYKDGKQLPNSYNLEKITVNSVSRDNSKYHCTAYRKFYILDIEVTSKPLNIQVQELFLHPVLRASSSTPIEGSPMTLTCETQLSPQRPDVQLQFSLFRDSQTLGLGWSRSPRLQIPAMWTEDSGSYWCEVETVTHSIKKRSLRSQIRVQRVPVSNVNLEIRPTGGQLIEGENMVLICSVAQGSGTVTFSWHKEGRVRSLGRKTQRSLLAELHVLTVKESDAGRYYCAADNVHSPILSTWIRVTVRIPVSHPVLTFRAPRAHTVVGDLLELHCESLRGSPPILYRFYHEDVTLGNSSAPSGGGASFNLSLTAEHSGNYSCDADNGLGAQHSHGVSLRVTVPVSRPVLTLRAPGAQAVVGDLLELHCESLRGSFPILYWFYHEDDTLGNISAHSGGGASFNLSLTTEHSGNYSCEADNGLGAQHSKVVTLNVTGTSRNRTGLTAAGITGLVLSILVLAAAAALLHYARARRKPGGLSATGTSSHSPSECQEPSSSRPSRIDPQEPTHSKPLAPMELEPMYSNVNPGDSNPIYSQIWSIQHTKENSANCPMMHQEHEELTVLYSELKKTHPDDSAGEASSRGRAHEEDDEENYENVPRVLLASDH

T2: IRTA1, full length transmembrane form with N-terminal myc tag, expressed on transfected CHO cells (human, UniProt Q96PJ5 20-515)
T2 construct: Full length cDNA in CHO cells; also called human IRTA-1; not shown: myc tag at the N-terminus
T2 sequence: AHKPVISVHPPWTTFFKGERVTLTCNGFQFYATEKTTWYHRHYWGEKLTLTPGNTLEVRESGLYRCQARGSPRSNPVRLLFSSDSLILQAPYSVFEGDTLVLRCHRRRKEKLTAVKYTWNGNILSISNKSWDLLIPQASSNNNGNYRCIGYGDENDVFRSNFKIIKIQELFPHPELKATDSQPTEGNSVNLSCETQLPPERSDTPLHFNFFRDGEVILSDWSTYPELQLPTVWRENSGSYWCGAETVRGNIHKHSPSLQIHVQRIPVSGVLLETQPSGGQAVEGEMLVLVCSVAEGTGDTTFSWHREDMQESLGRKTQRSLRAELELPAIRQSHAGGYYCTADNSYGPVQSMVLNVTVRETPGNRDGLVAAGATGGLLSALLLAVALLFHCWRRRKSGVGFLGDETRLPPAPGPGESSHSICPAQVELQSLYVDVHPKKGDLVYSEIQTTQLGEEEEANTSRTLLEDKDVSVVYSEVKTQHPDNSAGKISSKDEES

T3: IRTA5, full length transmembrane form with N-terminal myc tag, expressed on transfected CHO cells (human, UniProt Q96LA6 17-429)
T3 construct: Full length cDNA in CHO cells; also called human IRTA-5; not shown: myc tag at the N-terminus
T3 sequence: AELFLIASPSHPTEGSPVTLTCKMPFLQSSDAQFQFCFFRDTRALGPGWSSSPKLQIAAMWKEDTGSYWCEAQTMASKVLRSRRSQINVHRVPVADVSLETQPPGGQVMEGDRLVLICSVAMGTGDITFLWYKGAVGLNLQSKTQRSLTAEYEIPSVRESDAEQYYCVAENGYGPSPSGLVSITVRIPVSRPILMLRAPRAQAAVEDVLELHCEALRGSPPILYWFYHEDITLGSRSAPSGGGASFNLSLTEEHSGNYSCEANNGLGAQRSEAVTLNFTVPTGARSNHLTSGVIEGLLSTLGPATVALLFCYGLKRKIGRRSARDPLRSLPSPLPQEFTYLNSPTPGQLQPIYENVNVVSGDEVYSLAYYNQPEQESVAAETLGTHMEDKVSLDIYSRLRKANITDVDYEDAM

T4: IRTA2, full length transmembrane form with N-terminal myc tag, expressed on transfected CHO cells (human, UniProt Q96RD9 16-977)
T4 construct: Full length cDNA in CHO cells; also called human IRTA-2; not shown: myc tag at the N-terminus
T4 chain: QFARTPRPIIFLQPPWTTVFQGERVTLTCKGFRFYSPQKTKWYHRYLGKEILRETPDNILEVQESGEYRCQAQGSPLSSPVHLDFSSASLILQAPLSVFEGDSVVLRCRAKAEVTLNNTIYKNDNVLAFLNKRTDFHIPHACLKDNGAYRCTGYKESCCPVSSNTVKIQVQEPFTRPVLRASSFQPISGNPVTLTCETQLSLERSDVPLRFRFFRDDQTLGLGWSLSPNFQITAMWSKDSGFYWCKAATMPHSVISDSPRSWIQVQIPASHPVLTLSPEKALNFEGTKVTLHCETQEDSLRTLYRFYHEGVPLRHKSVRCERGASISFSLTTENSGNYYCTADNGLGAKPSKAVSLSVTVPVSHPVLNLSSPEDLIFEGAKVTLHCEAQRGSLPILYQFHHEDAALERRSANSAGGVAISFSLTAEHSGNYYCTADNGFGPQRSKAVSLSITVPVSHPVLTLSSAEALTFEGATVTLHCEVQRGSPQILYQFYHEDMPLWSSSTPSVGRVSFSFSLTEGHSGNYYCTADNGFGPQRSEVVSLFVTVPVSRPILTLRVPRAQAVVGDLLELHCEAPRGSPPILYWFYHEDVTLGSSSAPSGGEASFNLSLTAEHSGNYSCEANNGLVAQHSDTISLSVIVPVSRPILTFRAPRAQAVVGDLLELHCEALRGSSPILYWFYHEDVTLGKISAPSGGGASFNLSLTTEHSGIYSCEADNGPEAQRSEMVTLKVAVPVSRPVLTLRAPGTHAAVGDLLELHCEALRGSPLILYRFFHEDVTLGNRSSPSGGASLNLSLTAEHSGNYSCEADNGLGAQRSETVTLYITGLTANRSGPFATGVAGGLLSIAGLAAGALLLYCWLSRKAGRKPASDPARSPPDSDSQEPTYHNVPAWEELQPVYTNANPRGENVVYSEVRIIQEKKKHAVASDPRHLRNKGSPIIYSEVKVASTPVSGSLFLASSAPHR

T5: IRTA4, full length transmembrane form with N-terminal myc tag, expressed on transfected CHO cells (human, UniProt Q96LA5 20-508)
T5 construct: Full length cDNA in CHO cells; also called human IRTA-4; CHO line transfected with IRTA4; not shown: myc tag at the N-terminus
T5 sequence: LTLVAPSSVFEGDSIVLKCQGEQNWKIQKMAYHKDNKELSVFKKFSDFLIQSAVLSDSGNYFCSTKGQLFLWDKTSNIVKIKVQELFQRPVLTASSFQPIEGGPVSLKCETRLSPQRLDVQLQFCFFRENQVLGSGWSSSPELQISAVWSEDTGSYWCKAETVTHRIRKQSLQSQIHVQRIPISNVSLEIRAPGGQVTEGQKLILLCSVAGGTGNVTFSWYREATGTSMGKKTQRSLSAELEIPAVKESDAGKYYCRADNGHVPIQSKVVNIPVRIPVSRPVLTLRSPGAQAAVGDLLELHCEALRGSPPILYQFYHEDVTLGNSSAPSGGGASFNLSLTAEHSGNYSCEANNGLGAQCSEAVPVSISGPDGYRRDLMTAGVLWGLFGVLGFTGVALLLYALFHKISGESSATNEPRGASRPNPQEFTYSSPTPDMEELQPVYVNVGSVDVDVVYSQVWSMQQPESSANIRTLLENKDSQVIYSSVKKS

T6: IRTA4-C9 antigen (fusion protein composed of the extracellular domain of the IRTA4 linked to the carboxy … (human, UniProt P02699 340-348 (bovine entry)))
T6 construct: domain: carboxy terminal nine amino acids
T6 sequence: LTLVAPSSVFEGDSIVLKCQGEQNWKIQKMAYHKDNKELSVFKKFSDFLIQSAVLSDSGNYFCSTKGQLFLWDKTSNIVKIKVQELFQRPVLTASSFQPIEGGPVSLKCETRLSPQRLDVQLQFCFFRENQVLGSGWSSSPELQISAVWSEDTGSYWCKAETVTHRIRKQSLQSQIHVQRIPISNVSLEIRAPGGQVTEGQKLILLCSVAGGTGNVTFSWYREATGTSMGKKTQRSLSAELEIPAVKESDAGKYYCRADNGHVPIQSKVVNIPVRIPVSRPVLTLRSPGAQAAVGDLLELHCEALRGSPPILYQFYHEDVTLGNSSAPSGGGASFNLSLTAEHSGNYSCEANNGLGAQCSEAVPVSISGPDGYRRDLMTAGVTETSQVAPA


What was measured:
[1] = target: T1, IRTA3, full length transmembrane form …; assay: flow cytometry on transfected CHO cells, GMFI
Text: (§1) Chinese hamster ovary (CHO) cell lines that express one of each of the five IRTA proteins at the cell surface were developed and used to determine the specificity of the IRTA4 monoclonal antibodies by flow cytometry. CHO cells were transfected with expression plasmids containing full length cDNA encoding transmembrane forms of IRTA1, IRTA2, IRTA3, IRTA4, or IRTA5. In addition, the transfected proteins contained a myc tag at the N-terminus for detection by anti-myc antibody. Binding of the two anti-IRTA4 monoclonal antibodies was assessed by incubating the transfected cells with each of the IRTA4 Abs at a concentration of 10 μg/ml. The cells were washed and binding was detected with a FITC-labeled anti-human IgG Ab. A murine anti-myc Ab followed by labeled anti-murine IgG was used as the positive control. Secondary antibody alone was used as a negative control. The results are depicted in FIG. 7. The IRTA4 monoclonal antibodies 9G11 and 13B1 bound to the CHO line transfected with IRTA4 but not to CHO lines expressing IRTA1, 2, 3 or 5 as measured by the mean fluorescent intensity (MFI) of staining.

[2] = target: T2, IRTA1, full length transmembrane form …; assay: flow cytometry on transfected CHO cells, GMFI
Text: as §1

[3] = target: T3, IRTA5, full length transmembrane form …; assay: flow cytometry on transfected CHO cells, GMFI
Text: as §1

[4] = target: T4, IRTA2, full length transmembrane form …; assay: flow cytometry on transfected CHO cells, GMFI
Text: as §1

[5] = target: T5, IRTA4, full length transmembrane form …; assay: flow cytometry on IRTA4-transfected CHO cells, antibody at 10 µg/ml, FITC anti-human IgG detection, GMFI
Text: as §1

[6] = target: T6, IRTA4-C9 antigen (fusion protein …); assay: Biacore SPR, antibody captured by anti-human IgG on CM5 chip, IRTA4-C9 flowed at 50-400 nM, 1:1 Langmuir fit
Protocol: Anti-IRTA4 antibodies were characterized for affinities and binding kinetics by Biacore analysis (Biacore AB, Uppsala, Sweden). Purified anti-IRTA4 monoclonal antibodies were captured by anti-human IgG antibody covalently linked to a CM5 chip (carboxy methyl dextran coated chip) via primary amines, using standard amine coupling chemistry and kit provided by Biacore. Binding was measured by flowing the IRTA4-C9 antigen (a fusion protein composed of the extracellular domain of the IRTA4 linked to the carboxy terminal nine amino acids of rhodopsin) in HBS EP buffer (provided by Biacore AB) at concentrations of 400, 300, 200, 100, and 50 nM at a flow rate of 20 μl/min. The antigen-antibody association kinetics was followed for 10 minutes and the dissociation kinetics was followed for 10 minutes. The association and dissociation curves were fit to a 1:1 Langmuir binding model using BIAevaluation software (Biacore AB).

Row | binding result [1] | binding result [2] | binding result [3] | binding result [4] | binding result [5] | Kd [6] | koff [6] | kon [6] | Binder
1 | no binding (tested: 10 µg/ml) | no binding (tested: 10 µg/ml) | no binding (tested: 10 µg/ml) | no binding (tested: 10 µg/ml) | binds | 3.48 nM | 0.000426 s⁻¹ | 125000 M⁻¹ s⁻¹ | 13B1 human monoclonal antibody (antibody, V domains shown, Hybridoma-derived fully human IgG with kappa light chain from KM mice; also called anti-IRTA4 HuMAb 13B1) VH: QVQLVQSGAEVKKPGASVKVSCKASGYNFNSYDISWVRQAAGQGLEWMGWMNPNSGYTSYAQKFQGRVTMTWNTSISTAYMELSSLRSEDSAVYYCAREGIVGAIGWFDPWGQGTLVTVSS VL: DIQMTQSPSSVSASVGDRVTITCRASQGISSWLAWYQHKPGKAPKLLIYAASSLQSGVPSRFSGSGSGTDFTLTISSLQPEDFATYYCQQANSFPLTFGGGTKVEIK
2 | no binding (tested: 10 µg/ml) | no binding (tested: 10 µg/ml) | no binding (tested: 10 µg/ml) | no binding (tested: 10 µg/ml) | binds | 2.8 nM | 7.4e-05 s⁻¹ | 26300 M⁻¹ s⁻¹ | 9G11 human monoclonal antibody (antibody, V domains shown, Hybridoma-derived fully human IgG with kappa light chain from KM mice; also called anti-IRTA4 HuMAb 9G11) VH: QVQLVQSGAEVKKPGASVKVSCKASGYTFTSYAMHWVRQAPGQRLEWMGWINVGNGNTRYSQKFQGRVTITRDTSASTAYMELSSLRSEDTAVYYCAREGSNGWHEDFDYWGQGTLVTVSS VL: EIVLTQSPATLSLSPGERATLSCRASQSVSSYLAWYQQKPGQAPRLLIYDASNRATGIPARFSGSGSGTDFTLTISSLEPEDFAVYYCQQRSDWPPSLTFGGGTKVEIK
